Results taken from patent publication US6610541B2, “Recombinant, active caspases and uses thereof” (Thomas Jefferson University, priority 1998, dated 2003).

What was measured:
rev-caspase-6 = target: T1, rev-caspase-6 (Homo sapiens, UniProt P55212); experiment: Autocatalytic processing of in vitro translated rev-caspase-6 (SDS-PAGE/autoradiography); type: biochemical; design: T7-tag (15 residues) (N); made in house; host or cells: in vitro translation in rabbit reticulocyte lysate (TNT Kit, Promega); conditions: same concentrations (40-400 nM), inhibitor present during in vitro translation
T1 sequence (P55212 with tags, fused parts or gaps): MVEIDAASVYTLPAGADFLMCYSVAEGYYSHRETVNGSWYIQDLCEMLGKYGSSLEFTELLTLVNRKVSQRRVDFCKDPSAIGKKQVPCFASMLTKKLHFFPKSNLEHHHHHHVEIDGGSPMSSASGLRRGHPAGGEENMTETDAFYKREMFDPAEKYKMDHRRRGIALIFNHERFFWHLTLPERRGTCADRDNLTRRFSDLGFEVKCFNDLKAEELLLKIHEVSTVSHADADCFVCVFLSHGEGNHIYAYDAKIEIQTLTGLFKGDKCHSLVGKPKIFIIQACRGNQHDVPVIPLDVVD
Procedure: (§1) FIGS. 2B and C are scanned images of autoradiograms representing SDS-PAGE analysis of the autoprocessing of rev-caspase-3 and -6, respectively in the presence of varying levels of selected caspase inhibitors. Rev-caspase-3 (FIG. 2B) or rev-caspase-6 (FIG. 2C) were in vitro translated in the presence of increasing concentrations of DEVD-CHO […]; (SEQ ID NO:52), or zVAD-fmk (0-5 μM). The translation products were then analyzed as in FIG. 2A. WT, wild-type.
(§2) ^35S-labeled caspases (wild-type and rev-caspases) were obtained by in vitro translation in the presence of ^35S-methionine using a coupled transcription/translation system in rabbit reticulocyte lysate using TNT Kit (Promega) according to the manufacturer's recommendations.
(§3) To test the effect of selected caspase inhibitors on the autocatalytic activity of rev-caspase-3 and 6, the rev-caspases were translated as in Example 3, but in the presence of varying amounts of inhibitors.

caspase-6 = target: T2, caspase-6 (Homo sapiens, UniProt P55212); conditions: earlier observations, J. Biol. Chem. 271:27099; cited from earlier work
T2 sequence (P55212 24-293): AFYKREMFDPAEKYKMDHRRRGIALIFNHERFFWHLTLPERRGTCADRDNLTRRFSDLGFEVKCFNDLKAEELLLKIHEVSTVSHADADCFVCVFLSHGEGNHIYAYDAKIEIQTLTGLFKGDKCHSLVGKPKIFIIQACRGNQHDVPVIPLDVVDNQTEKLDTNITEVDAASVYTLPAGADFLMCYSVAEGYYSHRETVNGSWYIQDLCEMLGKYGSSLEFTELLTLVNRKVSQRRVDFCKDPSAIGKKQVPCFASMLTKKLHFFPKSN

[1] = target: T3, uncleavable rev-caspase-3 (Homo sapiens, UniProt P42574, D28A/D9A); experiment: In vitro translation of uncleavable rev-caspase-3: His6-T7-tag processing; type: biochemical; conditions: 400 nM DEVD-CHO during in vitro translation
T3 construct: uncleavable rev-caspase-3 (B); made in house; host or cells: in vitro translation in rabbit reticulocyte lysate (TNT Kit, Promega)
T3 sequence (P42574 with tags, fused parts or gaps D9A/D28A): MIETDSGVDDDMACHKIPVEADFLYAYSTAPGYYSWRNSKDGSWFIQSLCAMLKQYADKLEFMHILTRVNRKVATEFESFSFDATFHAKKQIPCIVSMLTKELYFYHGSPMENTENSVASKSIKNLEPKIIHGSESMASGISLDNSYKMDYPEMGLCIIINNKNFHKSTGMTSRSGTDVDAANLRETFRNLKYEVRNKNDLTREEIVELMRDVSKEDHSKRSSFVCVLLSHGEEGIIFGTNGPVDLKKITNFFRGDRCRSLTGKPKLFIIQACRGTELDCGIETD
Description: FIG. 5A is a scanned image of an autoradiogram representing SDS-PAGE analysis of the enzymatic activity of uncleavable rev-caspase-3. Uncleavable rev-caspase-3 was in vitro translated in the absence or the presence of increasing concentrations of DEVD-CHO (SEQ ID NO:52),. The translation product contains a cleavable 35 residues-long His6-T7-tag at its N-terminus. The active site mutant rev-caspase-3 (Rev C/A) was used as a control. The p32 cleavage product without the His6-T7-tag is indicated to the right.
^35S-labeled caspases (wild-type and rev-caspases) were obtained by in vitro translation in the presence of ^35S-methionine using a coupled transcription/translation system in rabbit reticulocyte lysate using TNT Kit (Promega) according to the manufacturer's recommendations. […] Because the in vitro translated products are present at very low concentration in the reaction mixture, the observed cleavage must be attributed to an intramolecular processing within the caspase heterotetramer.
However, to follow the activity of this molecule a cleavable 35 residue long His6-T7-tag N-terminal to the IETD (SEQ ID NO:53) site was introduced (see FIG. 1B). […] Nevertheless, the translated molecule was active as evident from its ability to cleave its T7-tag to form the p32 species (FIG. 5). In the presence of 400 nM DEVD-CHO (SEQ ID NO:52), processing of the T7-tag was inhibited and only the full length p34 species can be seen. […] Thus by mimicking the mature caspase structure, it is possible to design a contiguous active caspase molecules.

rev-caspase-3 = target: T4, rev-caspase-3 (Homo sapiens, UniProt P42574); experiment: Autocatalytic processing of in vitro translated rev-caspase-3 (SDS-PAGE/autoradiography); type: biochemical; design: T7-tag (15 residues) (N); made in house; host or cells: in vitro translation in rabbit reticulocyte lysate (TNT Kit, Promega); conditions: at 40-400 nM concentration, inhibitor present during in vitro translation
T4 sequence (P42574 with tags, fused parts or gaps): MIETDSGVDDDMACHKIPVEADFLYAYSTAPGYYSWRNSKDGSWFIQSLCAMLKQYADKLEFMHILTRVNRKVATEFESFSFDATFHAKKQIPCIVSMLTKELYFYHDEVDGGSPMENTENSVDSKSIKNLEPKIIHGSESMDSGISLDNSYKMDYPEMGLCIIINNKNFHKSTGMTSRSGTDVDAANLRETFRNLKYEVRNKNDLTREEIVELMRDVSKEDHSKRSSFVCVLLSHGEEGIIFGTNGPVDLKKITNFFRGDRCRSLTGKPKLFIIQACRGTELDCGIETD
Procedure: as §1, §2, §3

- effect on the autocatalytic activity of rev-caspase-6 (rev-caspase-6): little effect
- processing of the T7-tag of uncleavable rev-caspase-3 [1]: inhibited
- inhibition of the autocatalytic activity of rev-caspase-3 (rev-caspase-3): 50-90%
Substance: DEVD-CHO [reference compound]
- inhibition of caspase-6 (caspase-6): poorly inhibited
